Measured values taken from patent US20150346192A1 (Sanofi, published 2015).

T1: CCCH-type zinc finger antiviral protein (rat)
T1 sequence (Q8K3Y6 2-776, looked up): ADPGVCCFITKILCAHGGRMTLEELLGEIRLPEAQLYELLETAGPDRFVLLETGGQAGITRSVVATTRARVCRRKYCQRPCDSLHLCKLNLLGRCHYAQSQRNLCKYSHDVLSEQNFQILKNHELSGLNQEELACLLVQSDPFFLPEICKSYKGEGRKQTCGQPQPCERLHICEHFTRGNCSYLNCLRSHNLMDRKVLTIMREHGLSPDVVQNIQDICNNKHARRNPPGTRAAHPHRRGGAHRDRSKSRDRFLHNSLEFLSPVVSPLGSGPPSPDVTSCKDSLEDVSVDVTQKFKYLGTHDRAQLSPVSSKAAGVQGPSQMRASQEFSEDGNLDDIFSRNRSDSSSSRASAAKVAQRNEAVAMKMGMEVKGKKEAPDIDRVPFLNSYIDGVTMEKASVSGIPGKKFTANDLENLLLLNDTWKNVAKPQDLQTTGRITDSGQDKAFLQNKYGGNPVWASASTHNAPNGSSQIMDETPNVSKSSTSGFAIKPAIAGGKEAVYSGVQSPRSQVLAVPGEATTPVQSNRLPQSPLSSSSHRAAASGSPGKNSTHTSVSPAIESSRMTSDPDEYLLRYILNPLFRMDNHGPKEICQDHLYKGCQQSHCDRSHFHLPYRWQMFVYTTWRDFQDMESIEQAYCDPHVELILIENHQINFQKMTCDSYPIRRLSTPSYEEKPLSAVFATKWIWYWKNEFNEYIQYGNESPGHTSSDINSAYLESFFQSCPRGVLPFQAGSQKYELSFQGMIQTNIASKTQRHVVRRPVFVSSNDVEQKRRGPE

B1: scFv 3H2-1 (scFv)
scFv: MAEVQLVESGGSLVKPGGSLRLSCAASGFTFSNYSMNWVRQAPGKGLEWISSISGSSRYIYYADFVKGRFTISRDNATNSLYLQMNSLRAEDTAVYYCVRPIAVSDYWGRGTLVTVSSGGGGSGGGGSGGGGSQSVLTQPASVSGSPGQSITISCAGTSSDVGGYNYVSWYQQHPGKAPKLMIYEDSKRPSGVSNRFSGSKSGNTASLTISGLQAEDEADYYCQTYDGSRAVFGGGTKLAVLGAAAEQKLISEEDLNGAA
notes: also called intracellular antibody 3H2-1; intrabody 3H2-1; not shown: C-terminal Myc tag and 6xHis tag from vector pET23NN
B2: 5H4-VH (other)
VH: MAEVQLVESGGSLVKPGGSLRLSCAASGFTFSNYSMNWVRQAPGKGLEWISSISGSSRYIYYADFVKGRFTISRDNATNSLYLQMNSLRAEDTAVYYCVRDGGLREGFDCWGRGTLVTVSSAAAEQKLISEEDLNGAA
notes: Single human-derived VH domain (truncated scFv, VH only) on the 13R4 framework; produced in E. coli, immobilised on nickel beads; also called 5H4-VH fragment; intracellular antibody 5H4-VH; not shown: C-terminal Myc tag and 6xHis tag from vector pET23NN

Assays:
rCG30986, isoform CRA_a = biological target: T2, rCG30986, isoform CRA_a (rat); test: IP of RBL-2H3 lysate on nickel beads, MS/MS ProtScore
T2 construct: Endogenous protein from RBL-2H3 (rat) lysate
Experimental: (§1) They were used to immunoprecipitate protein lysates from RBL-2H3 cells stimulated or not beforehand via the FcεRI. After the immunoprecipitations, the beads were washed in low stringency conditions in order to preserve low affinity bindings.
(§2) After digestion with trypsin, the bands were analysed by mass spectrometry MS/MS using the MALDI-TOF (matrix-assisted laser desorption/ionization time of flight) technique.
(§3) The Mass spectrometer which was used is composed of a laser which ionises previously digested peptides; an analyser which measures the mass/charge (m/z) ratios of the ionised peptides as a function of their flight time; and a detector which records the number of ions for each given m/z ratio. The obtained spectra of m/z ratios allow the identification of peptides and thus proteins present in the samples, by interrogating the Genebank rat database, as well as the mouse database for comparison (the mice Genebank data being more complete). A confidence index or ProtScore is attributed for each protein as a function of the number of identified peptides which are part of its sequence and of the nature of these peptides (composition, size). A ProtScore higher than 3 corresponds to 0.1% probability of identifying a false positive, in other words the probability that this protein is present is 99.9%.

CTP synthase = biological target: T3, CTP synthase (rat); test: as above
T3 construct: Endogenous protein from RBL-2H3 (rat) lysate
Experimental: as §1, §2, §3

[1] = biological target: T4, metastasis associated 1 family, member 2 (rat); test: as above
T4 construct: Endogenous protein from RBL-2H3 (rat) lysate
Experimental: as §1, §2, §3

[2] = biological target: T5, fragile X mental retardation 1 (rat); test: as above
T5 construct: Endogenous protein from RBL-2H3 (rat) lysate
Experimental: as §1, §2, §3

[3] = biological target: T1, CCCH-type zinc finger antiviral protein; test: as above
Experimental: as §1, §2, §3

[4] = biological target: T6, ATP-binding cassette sub-family F member 1 (rat, UniProt Q6MG08 1-839); test: as above
T6 construct: Endogenous protein from lysates of the rat mast cell line RBL-2H3; also called ABCF1; ABCF1 protein
Experimental: as §1, §2, §3

[5] = biological target: T7, guanine nucleotide binding protein-like 2 (rat); test: as above
T7 construct: Endogenous protein from RBL-2H3 (rat) lysate
Experimental: as §1, §2, §3

[6] = biological target: T8, lysine (K)-specific demethylase 1 (rat); test: as above
T8 construct: Endogenous protein from RBL-2H3 (rat) lysate
Experimental: as §1, §2, §3

[7] = biological target: T9, PREDICTED: similar to myosin IG (rat); test: IP of RBL-2H3 lysate on nickel beads, MS/MS ProtScore; 1st value
T9 construct: Endogenous protein from RBL-2H3 (rat) lysate
Experimental: as §1, §2, §3

[8] = biological target: T10, adaptor-related protein complex 2, alpha 1 subunit (rat); test: as above
T10 construct: Endogenous protein from RBL-2H3 (rat) lysate
Experimental: as §1, §2, §3

[9] = biological target: T11, kinesin family member 20A (rat); test: as above
T11 construct: Endogenous protein from RBL-2H3 (rat) lysate
Experimental: as §1, §2, §3

vesicle docking protein [10] = biological target: T12, vesicle docking protein (rat); test: as above
T12 construct: Endogenous protein from RBL-2H3 (rat) lysate; a separate GenBank entry from gi 9507177
Experimental: as §1, §2, §3

[11] = biological target: T9, PREDICTED: similar to myosin IG; test: IP of RBL-2H3 lysate on nickel beads, MS/MS ProtScore; 2nd value
Experimental: as §1, §2, §3

[12] = biological target: T10, adaptor-related protein complex 2, …; test: as above
Experimental: as §1, §2, §3

[13] = biological target: T11, kinesin family member 20A; test: as above
Experimental: as §1, §2, §3

vesicle docking protein [14] = biological target: T12, vesicle docking protein; test: as above
Experimental: as §1, §2, §3

T12 sequence (P41542 whole entry): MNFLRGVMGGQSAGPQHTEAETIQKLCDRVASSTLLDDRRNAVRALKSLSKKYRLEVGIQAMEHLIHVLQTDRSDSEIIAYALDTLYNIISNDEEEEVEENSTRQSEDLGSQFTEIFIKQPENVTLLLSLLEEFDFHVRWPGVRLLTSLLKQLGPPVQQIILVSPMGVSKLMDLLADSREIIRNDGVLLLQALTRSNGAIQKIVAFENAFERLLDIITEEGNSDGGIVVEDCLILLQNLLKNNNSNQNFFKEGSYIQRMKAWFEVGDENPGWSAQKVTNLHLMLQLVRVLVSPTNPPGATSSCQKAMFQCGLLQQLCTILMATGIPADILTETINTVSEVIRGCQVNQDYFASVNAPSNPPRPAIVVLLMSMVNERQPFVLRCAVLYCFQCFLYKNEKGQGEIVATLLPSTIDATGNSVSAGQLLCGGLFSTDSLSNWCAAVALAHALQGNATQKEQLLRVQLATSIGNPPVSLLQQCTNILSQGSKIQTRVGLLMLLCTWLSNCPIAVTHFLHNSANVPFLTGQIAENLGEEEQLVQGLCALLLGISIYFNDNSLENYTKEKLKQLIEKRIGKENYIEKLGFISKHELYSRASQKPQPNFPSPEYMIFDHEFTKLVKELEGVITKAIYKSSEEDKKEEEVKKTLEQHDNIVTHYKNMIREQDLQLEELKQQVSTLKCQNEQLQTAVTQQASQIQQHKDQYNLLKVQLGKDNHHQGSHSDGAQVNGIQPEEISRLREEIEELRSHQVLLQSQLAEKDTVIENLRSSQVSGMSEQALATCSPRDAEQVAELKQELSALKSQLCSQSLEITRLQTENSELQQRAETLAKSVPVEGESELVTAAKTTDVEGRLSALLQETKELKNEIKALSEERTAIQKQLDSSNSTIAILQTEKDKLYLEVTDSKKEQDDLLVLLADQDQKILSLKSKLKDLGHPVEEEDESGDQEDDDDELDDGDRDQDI
T6 sequence (Q6MG08 whole entry): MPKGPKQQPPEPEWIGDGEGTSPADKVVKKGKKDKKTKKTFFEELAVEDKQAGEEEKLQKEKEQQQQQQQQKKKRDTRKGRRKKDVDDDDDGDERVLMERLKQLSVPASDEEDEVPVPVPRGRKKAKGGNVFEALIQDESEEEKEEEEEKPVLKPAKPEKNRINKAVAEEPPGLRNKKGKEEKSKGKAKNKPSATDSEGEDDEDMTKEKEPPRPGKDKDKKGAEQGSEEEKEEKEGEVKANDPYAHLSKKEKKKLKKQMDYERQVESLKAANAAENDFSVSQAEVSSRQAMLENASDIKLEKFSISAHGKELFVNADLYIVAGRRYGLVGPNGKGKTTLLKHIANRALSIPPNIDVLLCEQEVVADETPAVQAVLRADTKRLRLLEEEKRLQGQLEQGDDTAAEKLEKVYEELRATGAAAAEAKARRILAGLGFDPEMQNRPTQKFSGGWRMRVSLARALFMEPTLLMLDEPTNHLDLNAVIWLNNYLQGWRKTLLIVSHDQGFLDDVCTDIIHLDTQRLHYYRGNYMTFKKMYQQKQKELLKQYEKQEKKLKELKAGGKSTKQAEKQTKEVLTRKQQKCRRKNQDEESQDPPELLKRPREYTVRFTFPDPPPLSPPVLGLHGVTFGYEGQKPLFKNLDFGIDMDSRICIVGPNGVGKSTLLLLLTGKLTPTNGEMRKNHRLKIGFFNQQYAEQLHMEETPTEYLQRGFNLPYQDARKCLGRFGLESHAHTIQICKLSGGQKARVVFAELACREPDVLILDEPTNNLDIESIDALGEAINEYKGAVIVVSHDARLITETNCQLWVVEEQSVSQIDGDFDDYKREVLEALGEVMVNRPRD

Row | Binder | Protscore IP (rCG30986, isoform CRA_a) | Protscore IP (CTP synthase) | Protscore IP [1] | Protscore IP [2] | Protscore IP [3] | Protscore IP [4] | Protscore IP [5] | Protscore IP [6] | Protscore IP [7] | Protscore IP [8] | Protscore IP [9] | Protscore IP (vesicle docking protein [10]) | Protscore IP [11] | Protscore IP [12] | Protscore IP [13] | Protscore IP (vesicle docking protein [14])
1 | B1 | 10 | 7 | 4 | 4 | 4 | 51 | 10 | 10 | – | – | – | – | – | – | – | –
2 | B2 | – | – | – | – | – | – | – | – | 8 | 15 | 8 | 8 | 20 | 6 | 10 | 5
